Data on two sequences can be found in publication PMC4187101.

This data set addresses DNA adenine-N6 methyltransferase M.TaqI (Thermus aquaticus) (UniProt P14385). The data set is described as follows: competition, 2-aminopurine fluorescence titration. Conditions: 20 mM TrisOAc pH 7.9, 10 mM Mg(OAc)2, 50 mM KOAc, 0.01% reduced Triton X-100, with 1 mM DTT (unlocked) or no reducing agent (locked), 400 nM duplex vs 200 nM ….

Chain of DNA adenine-N6 methyltransferase M.TaqI (Thermus aquaticus) (P14385 whole entry): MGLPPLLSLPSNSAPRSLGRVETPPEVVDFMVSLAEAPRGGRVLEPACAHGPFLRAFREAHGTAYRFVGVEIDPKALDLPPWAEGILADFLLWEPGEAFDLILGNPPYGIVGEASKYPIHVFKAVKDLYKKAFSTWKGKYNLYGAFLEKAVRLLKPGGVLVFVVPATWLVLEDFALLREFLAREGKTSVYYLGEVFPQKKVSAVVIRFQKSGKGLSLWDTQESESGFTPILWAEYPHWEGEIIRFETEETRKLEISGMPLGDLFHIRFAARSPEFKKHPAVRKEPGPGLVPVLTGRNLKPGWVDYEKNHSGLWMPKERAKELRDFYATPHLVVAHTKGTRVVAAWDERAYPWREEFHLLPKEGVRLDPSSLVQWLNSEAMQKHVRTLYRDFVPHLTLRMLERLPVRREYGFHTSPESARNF

Take “GCCGCTCGNTGCCG / CGGCAUCGAGCGGC [1I6S-Et-S4U2 (locked, cross-linked A/T analog)]”: the Kd (usually the equilibrium constant for the complex coming apart) (strand 1 position 9 (N) = 6-thio-2'-deoxyinosine, S-ethylene-S interstrand cross-linked to 4-thio-2'-deoxyuridine at strand 2 U6, strand 2 A9 = N6-methyl-dA) was 6 nM.
For the sequence “GCCGCTCGNTGCCG / CGGCAUCGAGCGGC [1I6S·2U4S (unlocked A/T analog)]”, the Kd (strand 1 position 9 (N) = 6-thio-2'-deoxyinosine (I6S), strand 2 U6 = 4-thio-2'-deoxyuridine (U4S), A9 = N6-methyl-dA, all other residues DNA) came to 1 nM.
